Measured values: paper PMC2118910

Key:
Test in all cases: cell-cell adhesion assay
[1] = biological target: human CD8 alpha mutant M5 (human) (UniProt P01732)
[2] = biological target: human CD8 alpha mutant M3 (human)
[3] = biological target: human CD8 alpha mutant M9 (human) (UniProt P01732)
[4] = biological target: human CD8 alpha mutant M10 (human)
[5] = biological target: human CD8 alpha mutant M4 (human) (UniProt P01732)
[6] = biological target: human CD8 alpha mutant M1 (human)
[7] = biological target: human CD8 alpha mutant M7 (human)
[8] = biological target: human CD8 alpha mutant M6 (human)
[9] = biological target: human CD8 alpha mutant M8 (human) (UniProt P01732)
[10] = biological target: mouse CD8 alpha (Lyt-2) (mouse) (UniProt P01731)
[11] = biological target: human CD8 alpha mutant M2 (human) (UniProt P01732)

UniProt P01731, sequence (P01731 28-247): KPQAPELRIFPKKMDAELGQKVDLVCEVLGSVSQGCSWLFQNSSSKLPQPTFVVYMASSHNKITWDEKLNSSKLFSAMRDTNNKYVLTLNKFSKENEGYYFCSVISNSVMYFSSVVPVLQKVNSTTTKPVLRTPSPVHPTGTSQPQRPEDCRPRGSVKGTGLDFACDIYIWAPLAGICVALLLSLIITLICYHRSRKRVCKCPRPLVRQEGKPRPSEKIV

## HLA class I on the human B lymphoblastoid cell line UC
[1]
  percent binding relative to wild type: 11%
[2]
  percent binding relative to wild type: 13.5%
[3]
  percent binding relative to wild type: 56.9%
[4]
  percent binding relative to wild type: 42.6%
[5]
  percent binding relative to wild type: > 80%
[6]
  percent binding relative to wild type: 15.7%
[7]
  percent binding relative to wild type: 31.3%
[8]
  percent binding relative to wild type: 49.1%
[9]
  percent binding relative to wild type: > 80%
[10]
  percent binding relative to wild type: -0.6 to 5.8%
[11]
  percent binding relative to wild type: 1.7%
